Consider 1 molecule from paper PMC3859580, “The PS1 Hairpin of Mcm3 Is Essential for Viability and for DNA Unwinding In Vitro”.

The target in the data set is Mcm2-7 complex (wild type) (Saccharomyces cerevisiae, UniProt P29469;P24279;P30665;P29496;P53091;P38132 1-868;1-971;1-933;1-775;1-1017;1-845). Kind of data set: EMSA; 5 mM ATP, 10 mM Mg acetate; 50-400 nM complex, 1 nM DNA; shifted band diminished by anti-Mcm7; EMSA: 20 mM Tris-HCl pH 7.5, 10 mM Mg acetate, 100 uM EDTA, 5 mM DTT, 5 mM ATP, 37 C, 10 min; 5% native TBE gel with 5% glycerol, 0.1% NP-40, 10 mM Mg acetate. To be noted: protein: recombinant; copies: 1;1;1;1;1;1; label: 5'-32P; single strand. (In general: A gel shift assay detects complexes by their altered migration in electrophoresis.)

B1: 90-base ssDNA oligonucleotide with (T)60 tail (ssDNA)
DNA: ATGTCCTAGCAAGCCAGAATTCGGCAGCGTCTTTTTTTTTTTTTTTTTTTTTTTTTTTTTTTTTTTTTTTTTTTTTTTTTTTTTTTTTTTT
As for B1, the binding result was “binds”.
